Measured values published in patent US20150299265A1 (Molecular Partners, published 2015).

Each binder was assayed against Human HER2 expressed on tumour cells (human, UniProt P04626 23-1255) (assay: cell-based or functional assay).

Row | % activity vs. DARPin # 41, BT474 cell proliferation | IC50 [nM], inhibition of BT474 cell proliferation (BrdU) | Binder
1 | 99.3% | 3.3 nM | DARPin #38 (designed binder) MRGSHHHHHHGSDLGHKLLEAAVAGQDDEVRILLAAGADVNAKDWYGKTPLHFAAGLGHLEIVEVLLKAGADVNAKDEDGQTPLHLAAAYGHLEIVEVLLKAGADVNAQDNDGFTPADLAADSGHEDIAEVLQKLGGGGSGGGGSRSDLGIKLLQAANLGQDDEVRILLATGADVNAKDSIGQTPLHWAARRGHLEIVEVLLKAGADVNAKDEYGVTPLHLAASLGHLEIVEVLLKAGADVNAQDESGETPADLAALHGHEDIAEVLQKLN
2 | 68.8% | 2.56 nM | DARPin #36 (designed binder) MRGSHHHHHHGSDLGIKLLFAAAKGQDDEVRILLAAGADVNAKDFEGYTPLHVAAYDGHLEIVEVLLKAGADVNAKDSQGRTPLHEAAYSGHLEIVEVLLKAGADVNAQDDAGETPADLAAAWGHEDIAEVLQKLGGGGSGGGGSRSDLGAKLLVAATSGQDDEVRILLAAGADVNAKDRIGFTPLHRAAFVGHLEIVEVLLKAGADVNAQDDFGHTPADLAASLGHEDIAEVLQKLN
3 | 91.2% | 2.76 nM | DARPin #40 (designed binder) MRGSHHHHHHGSDLGHKLLEAAVAGQDDEVRILLAAGADVNAKDWYGKTPLHFAAGLGHLEIVEVLLKAGADVNAKDEDGQTPLHLAAAYGHLEIVEVLLKAGADVNAQDNDGFTPADLAADSGHEDIAEVLQKLGGGGSGGGGSRSDLGKKLLEAARAGQDDEVRILMANGADVNAKDEYGLTPLYLATAHGHLEIVEVLLKNGADVNAVDAIGFTPLHLAAFIGHLEIAEVLLKHGADVNAQDKFGKTAFDISIGNGNEDLAEILQKLN
4 | 94.8% | 2.19 nM | DARPin #37 (designed binder) MRGSHHHHHHGSDLGIKLLFAAAKGQDDEVRILLAAGADVNAKDFEGYTPLHVAAYDGHLEIVEVLLKAGADVNAKDSQGRTPLHEAAYSGHLEIVEVLLKAGADVNAQDDAGETPADLAAAWGHEDIAEVLQKLGGGGSGGGGSRSDLGKKLLEAARAGQDDEVRILMANGADVNAKDEYGLTPLYLATAHGHLEIVEVLLKNGADVNAVDAIGFTPLHLAAFIGHLEIAEVLLKHGADVNAQDKFGKTAFDISIGNGNEDLAEILQKLN
5 | 100% | 3.77 nM | DARPin #42 (designed binder) MRGSHHHHHHGSDLGAKLLSDLGVKLLWAAARGQDDEVRILLAAGADVNAKDFQGITPLHIAAQSGHLEIVEVLLKAGADVNAKDVTGDTPLHLAAQHGHLVIVEVLLKAGADVNAQDERGWTPADLAADWGHEDIAEVLQKLGGGGSGGGGSRSDLGKKLLEAARAGQDDEVRILMANGADVNATDIHGHTPLHLAAAMGHLEIVEVLLKNGADVNANDWRGFTPLHLAALNGHLEIVEVLLKNGADVNATDTAGNTPLHLAAWFGHLEIVEVLLKNGADVNAQDKFGKTAFDISIDNGNEDLAEILQKLN

The remaining lines, values behind:

Row | Binder | % activity vs. DARPin # 41, BT474 cell proliferation | IC50 [nM], inhibition of BT474 cell proliferation (BrdU)
6 | DARPin #23 (designed binder) MRGSHHHHHHGSDLGDKLLQSDLGIKLLFAAAKSQDDEVRILLAAGADVNAKDFQSVTPLHIAAQSGHLEIVEVLLKAGADVNAKDVTGDTPLHLAAQHGHLEIVEVLLKAGADVNAQDERGWTPADLAADWGHEDIAEVLQKLGGGGSGGGGSRSDLGAKLLVAATSGQDDEVRILLAAGADVNAKDRIGFTPLHRAAFVGHLEIVEVLLKAGADVNAQDDFGHTPADLAASLGHEDIAEVLQKLN | 97.3% | 2.99 nM
7 | DARPin #29 (designed binder) MRGSHHHHHHGSDLGVKLLWAAARGQDDEVRILLAAGADVNAKDFQGITPLHIAATNGHLEIVEVLLKAGADVNAKDITGETPLHHAADSGHLEIVEVLLKAGADVNAQDKAGVTPADLAAAWGHEDIAEVLQKLGGGGSGGGGSRSDLGKKLLEAARAGQDDEVRILMANGADVNAKDEYGLTPLYLATAHGHLEIVEVLLKNGADVNAVDAIGFTPLHLAAFIGHLEIAEVLLKHGADVNAQDKFGKTAFDISIGNGNEDLAEILQKLN | 95% | 1.33 nM
8 | DARPin #28 (designed binder) MRGSHHHHHHGSDLGVKLLWAAARGQDDEVRILLAAGADVNAKDFQGITPLHIAATNGHLEIVEVLLKAGADVNAKDITGETPLHHAADSGHLEIVEVLLKAGADVNAQDKAGVTPADLAAAWGHEDIAEVLQKLGGGGSGGGGSRSDLGAKLLVAATSGQDDEVRILLAAGADVNAKDRIGFTPLHRAAFVGHLEIVEVLLKAGADVNAQDDFGHTPADLAASLGHEDIAEVLQKLN | 82.5% | 5.15 nM
9 | DARPin #24 (designed binder) MRGSHHHHHHGSDLGDKLLQSDLGIKLLFAAAKSQDDEVRILLAAGADVNAKDFQSVTPLHIAAQSGHLEIVEVLLKAGADVNAKDVTGDTPLHLAAQHGHLEIVEVLLKAGADVNAQDERGWTPADLAADWGHEDIAEVLQKLGGGGSGGGGSRSDLGKKLLEAARAGQDDEVRILMANGADVNAKDEYGLTPLYLATAHGHLEIVEVLLKNGADVNAVDAIGFTPLHLAAFIGHLEIAEVLLKHGADVNAQDKFGKTAFDISIGNGNEDLAEILQKLN | 99.9% | 1.97 nM
10 | DARPin #32 (designed binder) MRGSHHHHHHGSDLGIKLLFAASRGQDDEVRILLAAGADVNAKDFEGITPLHAAARSGHLEIVEVLLKAGADVNAKDVEGWTPLHYAASYGHLEIVEVLLKAGADVNAQDNHGATPADLAAQWGHEDIAEVLQKLGGGGSGGGGSRSDLGIKLLQAANLGQDDEVRILLATGADVNAKDSIGQTPLHWAARRGHLEIVEVLLKAGADVNAKDEYGVTPLHLAASLGHLEIVEVLLKAGADVNAQDESGETPADLAALHGHEDIAEVLQKLN | 48% | 3.29 nM
11 | DARPin #33 (designed binder) MRGSHHHHHHGSDLGIKLLFAASRGQDDEVRILLAAGADVNAKDFEGITPLHAAARSGHLEIVEVLLKAGADVNAKDVEGWTPLHYAASYGHLEIVEVLLKAGADVNAQDNHGATPADLAAQWGHEDIAEVLQKLGGGGSGGGGSRSDLGAKLLVAATSGQDDEVRILLAAGADVNAKDRIGFTPLHRAAFVGHLEIVEVLLKAGADVNAQDDFGHTPADLAASLGHEDIAEVLQKLN | 65.3% | 4.47 nM
12 | DARPin #34 (designed binder) MRGSHHHHHHGSDLGIKLLFAASRGQDDEVRILLAAGADVNAKDFEGITPLHAAARSGHLEIVEVLLKAGADVNAKDVEGWTPLHYAASYGHLEIVEVLLKAGADVNAQDNHGATPADLAAQWGHEDIAEVLQKLGGGGSGGGGSRSDLGKKLLEAARAGQDDEVRILMANGADVNAKDEYGLTPLYLATAHGHLEIVEVLLKNGADVNAVDAIGFTPLHLAAFIGHLEIAEVLLKHGADVNAQDKFGKTAFDISIGNGNEDLAEILQKLN | 95.1% | 3.88 nM
